# Assays:
# [1] = test system: METTL3 (METTL3/14 complex);METTL14 (METTL3/14 complex); assay: MST; conditions: MST and nanoDSF: 20 mM Tris pH 7.5, 50 uM ZnCl2, 1% glycerol, 1 mM DTT (MST 100 nM probe; nanoDSF 1 uM protein, 20-80 C). EMSA: 40 mM KCl, 20 mM Tris pH 7.6, 1.
# [2] = test system: METTL3 (METTL3/14 complex);METTL14 (METTL3/14 complex); assay: thermal shift (nanoDSF); conditions: MST and nanoDSF: 20 mM Tris pH 7.5, 50 uM ZnCl2, 1% glycerol, 1 mM DTT (MST 100 nM probe; nanoDSF 1 uM protein, 20-80 C). EMSA: 40 mM KCl, 20 mM Tris pH 7.6, 1.
# [3] = test system: MacroH2A.1.1 (with H2B);H2B (with MacroH2A.1.1) (;); assay: MST; conditions: poly(ADP-ribose) polymer, no base sequence; MST and nanoDSF: 20 mM Tris pH 7.5, 50 uM ZnCl2, 1% glycerol, 1 mM DTT (MST 100 nM probe; nanoDSF 1 uM protein, 20-80 C). EMSA: 40 mM KCl, 20 mM Tris pH 7.6, 1.
# [4] = test system: MacroH2A.1.1 (with H2B);H2B (with MacroH2A.1.1) (;); assay: thermal shift (nanoDSF); conditions: 50 uM ZnCl2; dose-dependent; poly(ADP-ribose) polymer, no base sequence; MST and nanoDSF: 20 mM Tris pH 7.5, 50 uM ZnCl2, 1% glycerol, 1 mM DTT (MST 100 nM probe; nanoDSF 1 uM protein, 20-80 C). EMSA: 40 mM KCl, 20 mM Tris pH 7.6, 1.
Substance,Kd [1],binding signal [2],"Kd ([1]; poly(ADP-ribose) polymer, no base sequence)",Kd [3],"binding signal (C (delta Tm, maximum)) ([2]; 50 uM ZnCl2, concentration-dependent, poly(ADP-ribose) polymer, no base sequence)","binding signal (C (delta Tm, maximum)) [4]"
DRACH RNA probe (4 tandem repeats of DRACH motif),700 nM,1 C (delta Tm),–,–,–,–
PAR (poly-(ADP-ribose)),–,–,1100 nM,500 nM,> 2,3

# — paper PMC11992677
